Results on ten molecules are retold here after patent publication US20110190477A1 (G2 INFLAMMATION, published 2011).

Several values for one entry are separate records, joined by “and”; a condition that tells them apart may be missing. Identical values can stand only once.

Broadly, the EC50 is the concentration giving half of the maximal effect. The low end stands for a more potent agent, the high end for a less potent agent.

Experiment [1] addresses T1, human C5a receptor (human, UniProt P21730 1-350).
T1 construct: On human neutrophils, L1.2/hC5aR transfectants or neutrophils of hC5aR knock-in mice; also called hC5aR; C5aR1
T1 chain: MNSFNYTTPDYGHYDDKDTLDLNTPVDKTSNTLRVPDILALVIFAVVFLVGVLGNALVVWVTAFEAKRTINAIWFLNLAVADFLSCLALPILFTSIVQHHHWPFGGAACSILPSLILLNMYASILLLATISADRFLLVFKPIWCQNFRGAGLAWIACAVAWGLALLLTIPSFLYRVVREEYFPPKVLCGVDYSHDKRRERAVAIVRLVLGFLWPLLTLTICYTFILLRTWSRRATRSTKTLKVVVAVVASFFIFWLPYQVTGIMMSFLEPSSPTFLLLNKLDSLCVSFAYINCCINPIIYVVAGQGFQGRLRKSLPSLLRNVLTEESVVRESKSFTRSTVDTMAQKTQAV
Put plainly: 125I-C5a displacement by cold C5a, human neutrophils.

The target of experiment [2] is T1, human C5a receptor. Put plainly: 125I-C5a displacement, L1.2/hC5aR transfectants. The method, then: (§1) The ability of humanized Abs to inhibit ¹²⁵I-labelled C5a binding to L1.2 cells transfected with hC5aR gene or human neutrophils was tested as described below. Recombinant human C5a was obtained from Sigma Chemical Co. (St. Louis, Mo.). ¹²⁵I-Bolton-Hunter-labelled complement C5a was purchased from NEN-Dupont (Boston, Mass.), with a specific activity of 2200 Ci/mM. Briefly, L1.2/hC5aR stable transfectants were grown for several days prior to an experiment then treated overnight with 5 mM butyric acid to stimulate hC5aR expression prior to the binding assay. Human neutrophils were purified from venous blood collected from healthy volunteers. Neutrophils were separated from other leukocytes by percoll density centrifugation followed by a red blood cell lysis step. Both cell types were washed once in PBS and resuspended in binding buffer (50 mM Hepes, pH 7.5, 1 mM CaCl₂, 5 mM MgCl₂, 0.5% BSA) at a concentration of 1×10⁷/ml. Aliquots of 40 μl (4×10⁵ cells) were dispensed into 96 well microtitre plates, followed by the addition of cold competitor (antibody or human C5a). Cells and cold competitor were incubated for 15 min at room temperature before-radiolabelled C5a was added to a final concentration of 0.4 nM. The final reaction volume was 120 μl. After 60 min incubation at room temperature, the cells were washed three times with 150 μl of binding buffer containing 0.15 M NaCl. Cell pellets were then counted on a TopCount Scintillation Counter (Packard). Samples were assayed in triplicate at each of 6-8 concentrations. Each antibody was tested in at least 3 separate assays. The number of counts in each sample was expressed as a percentage of the maximum ¹²⁵I-C5a binding observed in wells with no added cold competitor after subtraction of background.
(§2) Results of this analysis (the displacement curves) for each of the humanized antibodies compared to the mouse antibody 7F3 in human neutrophils and L1.2/hC5aR transfectants are given in FIGS. 11 and 12 respectively. […] These values were obtained using Graphpad Prism software fitting the data to the non-linear equation for one site competition.

The target in experiment [3] is T1, human C5a receptor. Put plainly: cell-based or functional assay.
For experiment [4], the target named is T1, human C5a receptor. Put plainly: 125I-C5a displacement, human neutrophils. The method, then: as §1, §2
In experiment [5] the target is T1, human C5a receptor. Put plainly: cell-based or functional assay.
In experiment [6] the target is T1, human C5a receptor. The experiment in a line: saturation binding to human neutrophils at 4 C, flow cytometry. The method, then: Human neutrophils, isolated as described above, were resuspended in dPBS and 1×10⁵ cells (in 25 μl) were dispensed into wells of a 96-well plate. An equal volume (25 μl) of 2× antibody (diluted in PBS) was added to each well. The final antibody concentration using 2-fold serial dilution ranged from 40 to 0 ug/ml (using unlabelled hAb-Q, hAb-J and 7F3). Cells and antibody were incubated for 20 min times at 4° C. After incubation, 100 μl PBS+1% BCS was added to each well and the plate centrifuged at 2,000 rpm for 3 min. […] The cells were washed once as above and resuspended in PBS+1% FCS for analysis by flow cytometry. FSC v SSC scatter was used to identify neutrophils, with the Median Fluorescence Intensity (MFI) determined for each sample. EC50 values were determined by fitting data (MFI—background vs log₁₀[antibody concentration]) to the sigmoidal dose-response (variable slope) i.e. 4-parameter logistic equation using GraphPad Prism (v4.0) software. Bₘₐₓ and KD were determined by fitting data to the one-site binding hyperbola equation.
(A flow cytometer gives signals particle by particle.)

B1: human C5a (ligand, UniProt P01031 678-751, looked up)
chain: TLQKKIEEIAAKYKHSVVKKCCYDGACVNNDETCEQRAARISLGPRCIKAFTECCVVASQLRANISHKDMQLGR
modifications: tracer form: 125I-Bolton-Hunter label
notes: C5a is a fragment of it; also called hC5a; recombinant human C5a
In the experiment with human C5a receptor [1], B1 yielded a concentration giving a half-maximal response (EC50) of 0.5 nM.

B2: humanized anti-C5aR antibody hAb-A (antibody, human IgG4, kappa, V domains shown)
VH: QVQLVQSGAEVKKPGASVKISCKASGYAFSNSWMNWVRQAPGKGLEWMGRIYPGDGDTKYNGKFKGRVTITADESTSTAYMELSSLRSEDSAVYFCARFLLISTVTAVDYWGQGTTVTVSS
VL: DVVMTQSPLSLPVTLGEPASISCRSSQSLVHSNGNTYLHWYLQKPGQSPQLLIYKVSNRFSGVPDRFSGSGSGTDFTLKISRVEAEDVGVYFCSQSTLVPLTFGQGTKLEIKT
notes: also called antibody A
As to B2, in the experiment with human C5a receptor [2], the half-maximal effective concentration (EC50) was found to be 2.78 nM.

B3: humanized anti-C5aR antibody hAb-K (antibody, human IgG4 S228P, kappa, V domains shown)
VH: QVQLVQSGAEVKKPGASVKVSCKASGYAFSNSWMNWVRQAPGQGLEWMGRIYPGDGDTKYNGKFKGRVTMTADTSTSTVYMELSSLRSEDTAVYYCARFLLISTVTAVDYWGQGTLVTVSS
VL: DVVMTQTPLSLPVTLGQPASISCRSSQSLVHSNGNTYLHWCLQKPGQSPQLLIYKVSNRFSGVPDRFSGSGSGTDFTLKISRVEAEDVGVYYCSQSTLVPLTFGQGTKLEIKT
With B3, the “blocking of human neutrophil migration towards C5a at 5 µg/ml antibody” value (shortened to “blocking … at 5 µg/ml antibody”) in the experiment with human C5a receptor [3] is 55%.

B4: humanized anti-C5aR antibody hAb-M (antibody, human IgG4, kappa)
light: DVVMTQSPLSLPVTLGEPASISCRSSQSLVHSNGNTYLHWYLQKPGQSPQLLIYKVSNRFSGVPDRFSGSGSGTDFTLKISRVEAEDVGVYFCSQSTLVPLTFGQGTKLEIKTVAAPSVFIFPPSDEQLKSGTASVVCLLNNFYPREAKVQWKVDNALQSGNSQESVTEQDSKDSTYSLSSTLTLSKADYEKHKVYACEVTHQGLSSPVTKSFNRGEC
heavy: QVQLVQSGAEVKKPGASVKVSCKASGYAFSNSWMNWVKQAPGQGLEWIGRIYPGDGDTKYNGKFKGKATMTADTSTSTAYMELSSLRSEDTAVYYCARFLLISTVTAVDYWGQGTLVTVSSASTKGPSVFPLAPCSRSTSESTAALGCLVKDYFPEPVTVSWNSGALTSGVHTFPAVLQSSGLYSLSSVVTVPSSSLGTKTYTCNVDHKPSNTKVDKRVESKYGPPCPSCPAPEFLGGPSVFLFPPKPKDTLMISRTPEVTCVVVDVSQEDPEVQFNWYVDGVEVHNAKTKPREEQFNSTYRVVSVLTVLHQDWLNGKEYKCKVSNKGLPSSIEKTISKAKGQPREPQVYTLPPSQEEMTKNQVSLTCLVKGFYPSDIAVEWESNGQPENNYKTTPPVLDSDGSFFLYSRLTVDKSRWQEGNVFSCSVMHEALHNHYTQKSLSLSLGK
notes: also called antibody M
With B4, the EC50 in the experiment with human C5a receptor [4] is 4.05 nM; with human C5a receptor [2], 0.95 nM. In the experiment with human C5a receptor [5], the “Ab conc. effective at blocking C5a-induced Ca2+-flux (human neutrophils, 1 nM C5a)” value (“Ab conc. effective” below) is 30 µg/mL.

B5: humanized anti-C5aR antibody hAb-F (antibody, human IgG4 S228P, kappa)
light: DVVMTQSPLSLPVTLGQPASISCRSSQSLVHSNGNTYLHWFQQRPGQSPRLLIYKVSNRFSGVPDRFSGSGSGTDFTLKISRVEAEDVGVYYCSQSTLVPLTFGGGTKLEIKTVAAPSVFIFPPSDEQLKSGTASVVCLLNNFYPREAKVQWKVDNALQSGNSQESVTEQDSKDSTYSLSSTLTLSKADYEKHKVYACEVTHQGLSSPVTKSFNRGEC
heavy: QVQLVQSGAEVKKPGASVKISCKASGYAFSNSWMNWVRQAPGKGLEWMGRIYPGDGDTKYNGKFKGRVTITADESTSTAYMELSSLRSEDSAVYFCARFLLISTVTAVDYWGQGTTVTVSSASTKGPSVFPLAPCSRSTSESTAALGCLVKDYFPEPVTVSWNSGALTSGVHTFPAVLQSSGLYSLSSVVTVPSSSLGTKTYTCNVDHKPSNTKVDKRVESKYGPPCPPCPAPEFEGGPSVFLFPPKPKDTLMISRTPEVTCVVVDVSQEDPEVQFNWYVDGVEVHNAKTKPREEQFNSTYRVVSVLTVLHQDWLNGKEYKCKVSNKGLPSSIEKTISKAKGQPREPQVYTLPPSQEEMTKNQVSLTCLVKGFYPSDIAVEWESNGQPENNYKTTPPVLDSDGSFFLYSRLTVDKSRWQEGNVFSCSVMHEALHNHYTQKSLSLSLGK
notes: also called antibody F
On to B5, for which the EC50 stood at 2.55 nM in the experiment with human C5a receptor [4] and 1.26 nM with human C5a receptor [2]. The “Ab conc. tested but not effective at blocking Ca2+-flux (human neutrophils, 1 nM C5a)” value in the experiment with human C5a receptor [5] worked out at 10 µg/mL.

B6: humanized anti-C5aR antibody hAb-C (antibody, human IgG4, kappa)
light: DVVMTQSPLSLPVTLGQPASISCRSSQSLVHSNGNTYLHWFQQRPGQSPRLLIYKVSNRFSGVPDRFSGSGSGTDFTLKISRVEAEDVGVYYCSQSTLVPLTFGGGTKLEIKTVAAPSVFIFPPSDEQLKSGTASVVCLLNNFYPREAKVQWKVDNALQSGNSQESVTEQDSKDSTYSLSSTLTLSKADYEKHKVYACEVTHQGLSSPVTKSFNRGEC
heavy: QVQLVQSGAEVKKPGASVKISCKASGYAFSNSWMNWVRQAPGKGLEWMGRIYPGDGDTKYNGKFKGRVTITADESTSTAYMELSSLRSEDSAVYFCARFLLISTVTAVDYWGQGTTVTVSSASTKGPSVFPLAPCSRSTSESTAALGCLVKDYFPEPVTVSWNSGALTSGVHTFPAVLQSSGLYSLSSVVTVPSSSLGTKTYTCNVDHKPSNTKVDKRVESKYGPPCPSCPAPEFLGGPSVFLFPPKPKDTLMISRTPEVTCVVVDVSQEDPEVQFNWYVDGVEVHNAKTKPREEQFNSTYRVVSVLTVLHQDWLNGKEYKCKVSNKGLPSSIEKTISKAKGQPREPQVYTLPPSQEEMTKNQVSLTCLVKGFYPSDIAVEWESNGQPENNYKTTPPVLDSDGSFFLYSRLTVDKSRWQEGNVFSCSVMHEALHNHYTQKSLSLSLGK
notes: also called antibody C
In the case of B6, the “blocking … at 5 µg/ml antibody” value with human C5a receptor [3] was found to be 75%. Moreover, the half-maximal effective concentration (EC50) came to 2.48 nM with human C5a receptor [4] and 0.9 nM with human C5a receptor [2].

B7: humanized anti-C5aR antibody hAb-S (antibody, human IgG4 S228P, kappa)
light: DVVMTQSPLSLPVTLGEPASISCRSSQSLVHSNGNTYLHWYLQKPGQSPQLLIYKVSNRFSGVPDRFSGSGSGTDFTLKISRVEAEDVGVYFCSQSTLVPLTFGQGTKLEIKRTVAAPSVFIFPPSDEQLKSGTASVVCLLNNFYPREAKVQWKVDNALQSGNSQESVTEQDSKDSTYSLSSTLTLSKADYEKHKVYACEVTHQGLSSPVTKSFNRGEC
heavy: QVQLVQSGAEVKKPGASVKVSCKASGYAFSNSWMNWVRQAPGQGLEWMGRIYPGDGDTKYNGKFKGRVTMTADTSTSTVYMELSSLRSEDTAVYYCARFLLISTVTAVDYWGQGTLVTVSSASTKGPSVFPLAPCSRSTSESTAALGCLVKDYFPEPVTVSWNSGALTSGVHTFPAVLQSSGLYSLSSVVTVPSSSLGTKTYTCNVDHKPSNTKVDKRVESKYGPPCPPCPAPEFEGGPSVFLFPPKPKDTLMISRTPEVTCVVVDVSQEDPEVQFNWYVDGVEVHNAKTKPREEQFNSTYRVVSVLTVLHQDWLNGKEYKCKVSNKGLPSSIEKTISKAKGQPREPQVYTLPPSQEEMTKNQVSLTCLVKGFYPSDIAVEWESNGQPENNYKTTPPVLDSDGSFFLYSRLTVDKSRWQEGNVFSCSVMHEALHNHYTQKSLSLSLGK
notes: also called antibody S
B7 yielded an EC50 in the experiment with human C5a receptor [4] of 2.69 nM.

B8: humanized anti-C5aR antibody hAb-G (antibody, human IgG4 S228P, kappa)
light: DVVMTQSPLSLPVTLGEPASISCRSSQSLVHSNGNTYLHWYLQKPGQSPQLLIYKVSNRFSGVPDRFSGSGSGTDFTLKISRVEAEDVGVYFCSQSTLVPLTFGQGTKLEIKTVAAPSVFIFPPSDEQLKSGTASVVCLLNNFYPREAKVQWKVDNALQSGNSQESVTEQDSKDSTYSLSSTLTLSKADYEKHKVYACEVTHQGLSSPVTKSFNRGEC
heavy: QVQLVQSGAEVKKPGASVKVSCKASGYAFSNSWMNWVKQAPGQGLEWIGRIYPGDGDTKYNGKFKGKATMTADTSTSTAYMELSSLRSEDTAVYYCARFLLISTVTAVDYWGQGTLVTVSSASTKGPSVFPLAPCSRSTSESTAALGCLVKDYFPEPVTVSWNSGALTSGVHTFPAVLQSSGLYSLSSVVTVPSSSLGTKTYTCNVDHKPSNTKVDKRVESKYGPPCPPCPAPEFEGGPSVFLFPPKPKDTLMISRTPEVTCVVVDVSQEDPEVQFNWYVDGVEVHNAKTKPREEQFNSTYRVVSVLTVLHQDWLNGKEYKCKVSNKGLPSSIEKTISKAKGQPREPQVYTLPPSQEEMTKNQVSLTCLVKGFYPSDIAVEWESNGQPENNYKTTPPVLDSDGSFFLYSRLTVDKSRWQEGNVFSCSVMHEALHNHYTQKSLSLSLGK
notes: also called antibody G
With B8, the “blocking … at 5 µg/ml antibody” value with human C5a receptor [3] was 84%. Besides, the concentration for a half-maximal effect (EC50) was found to be 3.52 nM with human C5a receptor [4] and 1.53 nM in the experiment with human C5a receptor [2]. Also, in the experiment with human C5a receptor [5], the “Ab conc. effective” value came to 30 µg/mL.

B9: humanized anti-C5aR antibody hAb-N (antibody, human IgG1, kappa)
light: DVVMTQSPLSLPVTLGEPASISCRSSQSLVHSNGNTYLHWYLQKPGQSPQLLIYKVSNRFSGVPDRFSGSGSGTDFTLKISRVEAEDVGVYFCSQSTLVPLTFGQGTKLEIKTVAAPSVFIFPPSDEQLKSGTASVVCLLNNFYPREAKVQWKVDNALQSGNSQESVTEQDSKDSTYSLSSTLTLSKADYEKHKVYACEVTHQGLSSPVTKSFNRGEC
heavy: not shown
notes: IgG1; also called antibody N
Take B9: the half-maximal effective concentration (EC50) was 0.65 nM with human C5a receptor [4]; 20 nM to 25 nM (2×) and ~3 µg/mL with human C5a receptor [6]; 1.03 nM in the experiment with human C5a receptor [2]. Also, the “Ab conc. tested but not effective at blocking Ca2+-flux (human neutrophils, 1 nM C5a)” value in the experiment with human C5a receptor [5] was found to be 0.01 µg/mL. The Kd with human C5a receptor [6] was 20 nM to 25 nM (2×) and ~3 µg/mL.

B10: humanized anti-C5aR antibody hAb-O (antibody, human IgG1, kappa)
light: DVVMTQSPLSLPVTLGQPASISCRSSQSLVHSNGNTYLHWFQQRPGQSPRLLIYKVSNRFSGVPDRFSGSGSGTDFTLKISRVEAEDVGVYYCSQSTLVPLTFGGGTKLEIKTVAAPSVFIFPPSDEQLKSGTASVVCLLNNFYPREAKVQWKVDNALQSGNSQESVTEQDSKDSTYSLSSTLTLSKADYEKHKVYACEVTHQGLSSPVTKSFNRGEC
heavy: not shown
notes: IgG1; also called antibody O
Take B10: the EC50 with human C5a receptor [4] stood at 0.48 nM; with human C5a receptor [2] it was 0.68 nM. Besides, the “Ab conc. effective” value in the experiment with human C5a receptor [5] stood at 10 µg/mL.
